Reference: US20210186964, “METHODS OF TREATING CANCERS” (Dana-Farber Cancer Institute, Inc., published 2021)

T1: USP1 (UniProt O94782 SEQ:1-770)
T1 sequence: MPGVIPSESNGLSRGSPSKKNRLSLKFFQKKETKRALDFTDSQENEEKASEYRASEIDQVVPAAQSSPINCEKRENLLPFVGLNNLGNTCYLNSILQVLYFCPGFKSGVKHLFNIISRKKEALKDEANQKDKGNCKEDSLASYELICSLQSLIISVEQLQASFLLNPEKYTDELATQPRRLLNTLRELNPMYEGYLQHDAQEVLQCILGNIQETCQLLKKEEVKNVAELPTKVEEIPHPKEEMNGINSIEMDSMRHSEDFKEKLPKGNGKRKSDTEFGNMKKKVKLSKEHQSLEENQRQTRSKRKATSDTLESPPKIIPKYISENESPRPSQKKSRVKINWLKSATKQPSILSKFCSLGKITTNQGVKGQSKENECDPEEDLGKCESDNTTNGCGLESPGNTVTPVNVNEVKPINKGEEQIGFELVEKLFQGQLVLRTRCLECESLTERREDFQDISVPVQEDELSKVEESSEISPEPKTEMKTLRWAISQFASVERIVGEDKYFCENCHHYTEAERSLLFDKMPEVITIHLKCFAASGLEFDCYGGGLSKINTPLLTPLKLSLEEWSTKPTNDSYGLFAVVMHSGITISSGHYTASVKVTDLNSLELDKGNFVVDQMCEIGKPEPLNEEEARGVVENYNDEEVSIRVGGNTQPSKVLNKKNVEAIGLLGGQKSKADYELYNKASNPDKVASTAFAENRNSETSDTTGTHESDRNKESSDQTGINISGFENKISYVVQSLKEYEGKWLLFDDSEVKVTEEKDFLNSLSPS


How the values were obtained:
UAF1 (WDR48) = UAF1 (WDR48) (UniProt Q8TAF3 Q8TAF3:1-677); experiment: EMSA; 300 nM UAF1; settings: tags: SF9-made or R&D systems E566, label: Cy3
Protocol: (§1) Recombinant USP1 and UAF1 proteins from R&D systems (E564, E566) were used for some electromobility shift assays and in vitro deubiquitination assays. Electromobility shift assays were performed by pre-incubating fluorophore (Cy3)-tagged DNA and purified protein in binding buffer (20 mM Hepes (pH 7.6), 0.1M KCl, 5 mM MgCl2, 3% (v/v) glycerol, 0.25 mg/ml BSA, 0.05 mM EDTA, 0.5 mM DTT, 0.01% (v/v) NP-40) for 30 min on ice. Samples were then loaded onto 6% polyacrylamide gels and ran at 65V in 0.5× TBE for 135 min at 4° C. Gels were visualized using the LAS-4000 imaging system (GE Healthcare Life Sciences, Pittsburgh, Pa.). DNA used for Ub-AMC, Ub-CHOP2 and electromobility shift assay were 40 bp in length and were designed to have minimal potential of secondary structure formation. The sequences are as follows:
(§2) Since UAF1 has DNA binding activity, USP1 might also bind DNA and thereby stabilize replication forks. To test this hypothesis, DNA gel shift assays were performed with purified UAF1 protein with or without purified USP1 protein to analyze direct DNA binding activity. Purified proteins were incubated with either single strand DNA, double strand DNA, or fork DNA. The UAF1 protein and the USP1/UAF1 complex generated a reproducible gel shift of all three DNA templates.

USP1/UAF1 complex = USP1/UAF1 complex (UniProt O94782;Q8TAF3 O94782:1-785,Q8TAF3:1-677); experiment: EMSA; 100 nM USP1 + 300 nM UAF1; settings: tags: SF9-made, R&D systems or Boston Biochem, label: Cy3
Protocol: as §1, §2

USP1 = target: T1, USP1; experiment: EMSA; 300 nM USP1; strongest shift; 5 mM MgCl2, 0.1 M KCl, on ice; not disrupted by ML323 (FIG. 11C); settings: tags: SF9-made or R&D systems E564; label: Cy3; fork with non-complementary single-stranded arms
Protocol: as §1, §2

USP12 = USP12 (UniProt O75317 SEQ:1-370); experiment: EMSA; 300 nM USP12; settings: label: Cy3
Protocol: as §1
USP1, USP12, and USP46 are related DUB proteins which bind and are stimulated by UAF1 (20, 23, 24, 31, 32). All three proteins contain a conserved UAF1 binding site, localized to a zinc finger region of each polypeptide (FIG. 10A). These USPs bind to a discrete WD40 domain of UAF1 (23, 24). Of the three proteins, USP1 is the largest protein, as shown by the sequence alignment with USP12 and USP46 (FIG. 10C).

[1] = fork with non-complementary single-stranded arms

USP12, sequence (O75317 whole entry): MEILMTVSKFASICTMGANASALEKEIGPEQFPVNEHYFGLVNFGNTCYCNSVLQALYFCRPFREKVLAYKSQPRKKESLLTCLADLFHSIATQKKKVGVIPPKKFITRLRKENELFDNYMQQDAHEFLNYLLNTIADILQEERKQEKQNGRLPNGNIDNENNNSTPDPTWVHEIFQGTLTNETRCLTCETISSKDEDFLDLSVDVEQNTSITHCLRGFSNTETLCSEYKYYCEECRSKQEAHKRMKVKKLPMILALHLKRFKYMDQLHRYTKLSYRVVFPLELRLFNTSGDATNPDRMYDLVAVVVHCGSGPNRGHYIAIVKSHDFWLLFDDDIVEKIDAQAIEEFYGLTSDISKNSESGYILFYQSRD
USP1/UAF1 complex, sequence (Q8TAF3 whole entry, one chain of several): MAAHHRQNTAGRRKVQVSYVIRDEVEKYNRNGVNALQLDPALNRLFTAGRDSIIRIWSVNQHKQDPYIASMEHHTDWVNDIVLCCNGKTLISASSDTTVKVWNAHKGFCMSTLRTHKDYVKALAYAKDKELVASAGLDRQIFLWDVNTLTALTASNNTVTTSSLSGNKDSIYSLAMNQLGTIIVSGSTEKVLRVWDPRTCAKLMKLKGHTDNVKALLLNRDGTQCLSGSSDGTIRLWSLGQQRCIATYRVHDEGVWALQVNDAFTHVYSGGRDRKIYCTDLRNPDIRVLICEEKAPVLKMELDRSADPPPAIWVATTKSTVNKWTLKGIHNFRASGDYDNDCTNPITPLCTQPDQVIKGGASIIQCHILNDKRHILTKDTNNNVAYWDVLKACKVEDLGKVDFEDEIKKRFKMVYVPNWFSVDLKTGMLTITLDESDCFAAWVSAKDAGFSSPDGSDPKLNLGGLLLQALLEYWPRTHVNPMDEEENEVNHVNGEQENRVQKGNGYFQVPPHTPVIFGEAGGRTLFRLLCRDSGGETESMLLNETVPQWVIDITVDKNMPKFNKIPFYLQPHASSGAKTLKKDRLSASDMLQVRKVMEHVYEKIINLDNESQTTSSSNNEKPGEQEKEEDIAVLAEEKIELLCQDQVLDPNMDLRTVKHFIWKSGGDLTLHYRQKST
UAF1 (WDR48), sequence (Q8TAF3 whole entry, one chain of several): as above

Binder	binding result (UAF1 (WDR48); [1])	binding result (USP1/UAF1 complex; [1])	binding result (USP1)	binding result (USP12; [1])	binding result (UAF1 (WDR48))	binding result (USP1/UAF1 complex)	binding result (USP12)
40-mer fork DNA (structured_DNA) DNA 1: CCAGTGAATTGTTGCTCGGTACCTGCTAACGGTAATCGG DNA 2: CAGCTATGGGACATTCGATACCGAGCAACAATTCACTGG	binds	binds	binds	no binding			
CCAGTGAATTGTTGCTCGGTACCTGCTAACGGTAATCGG (ssDNA) [40-mer ssDNA (top)]					binds	binds	no binding
40-mer dsDNA (dsDNA) DNA 1: CCAGTGAATTGTTGCTCGGTACCTGCTAACGGTAATCGG DNA 2: CCGATTACCGTTAGCAGGTACCGAGCAACAATTCACTGG					binds	binds	no binding
